The record followed here is the supplement of paper PMC12455559.

The nature of data set [1]: PET hydrolysis, aromatic products released after 48 h (umol product/mg enzyme); higher = more PET depolymerization activity. Particulars: substrate: cryPow. Put shortly:
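Hydrolysis activity toward PET is reported as supernatant aromatic product per mg enzyme. To measure it, 5 μg (50 μL) of tagless enzyme was incubated with 3.5 mg amorphous PET film or crystalline PET powder in 450 μL buffer for 48 h at 40 or 60 °C in sealed, unshaken plates. The product was quantified by absorbance at 260 and 280 nm relative to buffer blanks.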

A short description of data set [2]: purified protein yield per well (BCA); higher = higher soluble expression. In a few lines: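 The measured quantity is purified protein yield per well, determined with the Pierce Rapid Gold BCA kit. Anything below 25 ug (0.1 mg/mL) lies under the detection threshold. Enzymes were expressed in E. coli C41(DE3) in 2 mL autoinduction cultures with 100 µg/mL kanamycin at 37 °C for 2 h, then 18 °C for 40 h, and purified on an OT-2 robot using Ni-charged magnetic beads and SUMO protease release.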

Data set [3] is described as follows: melting temperature (DSF); higher = more thermostable. Put shortly:
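Enzymes made in E. coli C41(DE3) were nickel-bead purified and cut free with SUMO protease before testing. Differential scanning fluorimetry gave each melting temperature. For this, 5 μL 5X Sypro Orange was added to 45 μL enzyme (0 to 0.3 mg/mL) in sealed PCR plates, and a Bio-Rad CFX96 read fluorescence from 25 °C over 250 cycles of 0.3 °C each, ramping at 0.3 °C/s.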

A value given as a limit tells only on which side of the number the result lay.

As for “ADNPYQRGPDPTRTSVTAVNGPFANTSVSVPTGYGFNGGRIYYPTDTSQGTFGAIAISPGYTALFSAELAWMGPWLASHGFVVIGIETNSRNDFDTARGTQLLAALDYLTQQSPVRDRVDPTRLAVAGHSMGGGGALSAATRRSSLKAAVGIAPYSPSSNLANDRVPTMVFAGQADTVVTPSYATGLYNSLPATTESAYLEVAGADHGFMVGRSNPVLVRTMLPFVKMFVDNDARYSQFLCPLLDSSGVVTYRSTCPLLPSTPTTPTATPTNTPTPTASPTVPPTSASQIVGTQSGRCVDVPNASRTNGTRVTLYDCNRQINQTWTYTANKQLQVYGTMCLDAAGTGNGAAVQIYNCHGQTNQQWNVNSNGTISSVQSGRCLDVWSTSNGAQIQLYDCHGQPNQQFRLVSLA [ESM135]”, the PET hydrolysis in data set [1] (40 °C, pH 4.5) is 6; in data set [1] (40 °C, pH 5.5) it was 15; in data set [1] (40 °C, pH 6.5), 14; in data set [1] (40 °C, pH 7.5), 5; in data set [1] (60 °C, pH 4.5), less than 3; in data set [1] (60 °C, pH 5.5), less than 3. Further, the PET hydrolysis in data set [1] (60 °C, pH 6.5) is less than 3; in data set [1] (60 °C, pH 7.5), less than 3. In addition, the “purified protein yield per well” value in data set [2] is 109 µg. In data set [3], the melting temperature came out at 61.3 C.
With “DEIGQAPTSSNITGNGSFSVSTYNISSLVTGFGGGVAYYPSTAGRYPVVAVSPGFTARWSSISWIGPRLASWGFVVVGIETNSVYDQPASRGSQLLAALNWAVNSAPSAITSRADGSRRGVAGHSMGGGGTLEALAADTTGNVKAGVPLAPWNSDKTWNNVNEPVQIIGGESDTVAGVSSHSIPFYNSLGGSKSYVELNGASHFFPQTTNATTSRALVSWFKRWLNQDARFTPFTCGYGGTAVSDFRTNAC [ESM177]”, the PET hydrolysis is less than 3 in data set [1] (40 °C, pH 4.5); less than 3 in data set [1] (40 °C, pH 5.5); 13 in data set [1] (40 °C, pH 6.5); 42 in data set [1] (40 °C, pH 7.5); less than 3 in data set [1] (60 °C, pH 4.5); less than 3 in data set [1] (60 °C, pH 5.5). The PET hydrolysis is less than 3 in data set [1] (60 °C, pH 6.5) and 7 in data set [1] (60 °C, pH 7.5). Besides, in data set [2], the “purified protein yield per well” value was determined as 71.4 µg. Moreover, the melting temperature in data set [3] was 54.4 C.
